± gives the standard deviation of the averaged measurements.
Experiments:
Saccharomyces cerevisiae [1] = test: protein stability index of tFT-peptide fusion (C-terminal peptide) (PSI (0-1 scale)); higher = more stable (slower turnover); conditions: genetic background: wild type; temperature: 30 C
Saccharomyces cerevisiae [2] = test: as above
Experimental: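 MPS profiling in S. cerevisiae of the tFT-X12 degron library: putative degron peptides plus stable controls, 12 aa, fused to the C-terminus of a sfGFP-mCherry timer. Cells are FACS-sorted into 8 mCherry/sfGFP bins and deep-sequenced. PSI runs from 0 (unstable) to 1 (stable). Backgrounds are wild type, das1Δ and doa10Δ at 30 °C, and wild type, das1Δ, cdc34-1 and cdc53-1 at 37 °C; 2-3 technical replicates each.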

[3] = genetic background: cdc34-1, temperature: 37 C
[4] = genetic background: cdc53-1, temperature: 37 C
[5] = genetic background: das1 deletion, temperature: 30 C
[6] = genetic background: das1 deletion, temperature: 37 C
[7] = genetic background: doa10 deletion, temperature: 30 C
[8] = genetic background: wild type, temperature: 30 C
[9] = genetic background: wild type, temperature: 37 C
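Note: PSI is a weighted mean of sequencing reads over stability bins, variants kept only with over 10 reads, mCherry proximal and sfGFP distal, peptide attached via GGGS linker.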

PALPQPMNPAPP
protein stability index (Saccharomyces cerevisiae [1]): 0.725 ± 0.032 | protein stability index (Saccharomyces cerevisiae [2]; [3]): 0.656 ± 0.043 | protein stability index (Saccharomyces cerevisiae [2]; [4]): 0.722 ± 0.0094 | protein stability index (Saccharomyces cerevisiae [2]; [5]): 0.657 ± 0.014 | protein stability index (Saccharomyces cerevisiae [2]; [6]): 0.727 ± 0.015 | protein stability index (Saccharomyces cerevisiae [2]; [7]): 0.667 ± 0.022 | protein stability index (Saccharomyces cerevisiae [2]; [8]): 0.66 ± 0.016 | protein stability index (Saccharomyces cerevisiae [2]; [9]): 0.6734 ± 0.0059

LVCLTPPPSPFS
protein stability index (Saccharomyces cerevisiae [1]): 0.412 ± 0.033 | protein stability index (Saccharomyces cerevisiae [2]; [3]): 0.689 ± 0.021 | protein stability index (Saccharomyces cerevisiae [2]; [4]): 0.799 ± 0.065 | protein stability index (Saccharomyces cerevisiae [2]; [5]): 0.323 ± 0.04 | protein stability index (Saccharomyces cerevisiae [2]; [6]): 0.5136 ± 0.0026 | protein stability index (Saccharomyces cerevisiae [2]; [7]): 0.313 ± 0.009 | protein stability index (Saccharomyces cerevisiae [2]; [8]): 0.332 ± 0.016 | protein stability index (Saccharomyces cerevisiae [2]; [9]): 0.486 ± 0.021

YTQKFTFYGLPA
protein stability index (Saccharomyces cerevisiae [1]): 0.027 ± 0.023 | protein stability index (Saccharomyces cerevisiae [2]; [3]): 0.701 ± 0.035 | protein stability index (Saccharomyces cerevisiae [2]; [4]): 0.721 ± 0.013 | protein stability index (Saccharomyces cerevisiae [2]; [5]): 0.639 ± 0.038 | protein stability index (Saccharomyces cerevisiae [2]; [6]): 0.727 ± 0.013 | protein stability index (Saccharomyces cerevisiae [2]; [7]): 0.618 ± 0.033 | protein stability index (Saccharomyces cerevisiae [2]; [8]): 0.616 ± 0.016 | protein stability index (Saccharomyces cerevisiae [2]; [9]): 0.708 ± 0.02

CGQIAFLGIAVK
protein stability index (Saccharomyces cerevisiae [1]): 0.4722 ± 0.0006 | protein stability index (Saccharomyces cerevisiae [2]; [3]): 0.479 ± 0.0077 | protein stability index (Saccharomyces cerevisiae [2]; [4]): 0.504 ± 0.043 | protein stability index (Saccharomyces cerevisiae [2]; [5]): 0.317 ± 0.042 | protein stability index (Saccharomyces cerevisiae [2]; [6]): 0.551 ± 0.024 | protein stability index (Saccharomyces cerevisiae [2]; [7]): 0.289 ± 0.015 | protein stability index (Saccharomyces cerevisiae [2]; [8]): 0.323 ± 0.029 | protein stability index (Saccharomyces cerevisiae [2]; [9]): 0.541 ± 0.0077

FFASAAVHLVTC
protein stability index (Saccharomyces cerevisiae [1]): 0.4533 ± 0.0034 | protein stability index (Saccharomyces cerevisiae [2]; [3]): 0.513 ± 0.01 | protein stability index (Saccharomyces cerevisiae [2]; [4]): 0.521 ± 0.032 | protein stability index (Saccharomyces cerevisiae [2]; [5]): 0.435 ± 0.02 | protein stability index (Saccharomyces cerevisiae [2]; [6]): 0.559 ± 0.014 | protein stability index (Saccharomyces cerevisiae [2]; [7]): 0.312 ± 0.0063 | protein stability index (Saccharomyces cerevisiae [2]; [8]): 0.34 ± 0.016 | protein stability index (Saccharomyces cerevisiae [2]; [9]): 0.491 ± 0.0037

CEERVKSRLKQN
protein stability index (Saccharomyces cerevisiae [1]): 0.226 ± 0.082 | protein stability index (Saccharomyces cerevisiae [2]; [3]): 0.619 ± 0.011 | protein stability index (Saccharomyces cerevisiae [2]; [4]): 0.68 ± 0.013 | protein stability index (Saccharomyces cerevisiae [2]; [5]): 0.653 ± 0.043 | protein stability index (Saccharomyces cerevisiae [2]; [6]): 0.728 ± 0.014 | protein stability index (Saccharomyces cerevisiae [2]; [7]): 0.174 ± 0.012 | protein stability index (Saccharomyces cerevisiae [2]; [8]): 0.18 ± 0.031 | protein stability index (Saccharomyces cerevisiae [2]; [9]): 0.307 ± 0.022

KGSKGELGVHVG
protein stability index (Saccharomyces cerevisiae [1]): 0.671 ± 0.34 | protein stability index (Saccharomyces cerevisiae [2]; [3]): 0.686 ± 0.03 | protein stability index (Saccharomyces cerevisiae [2]; [4]): 0.712 ± 0.013 | protein stability index (Saccharomyces cerevisiae [2]; [5]): 0.63 ± 0.016 | protein stability index (Saccharomyces cerevisiae [2]; [6]): 0.728 ± 0.0034 | protein stability index (Saccharomyces cerevisiae [2]; [7]): 0.628 ± 0.023 | protein stability index (Saccharomyces cerevisiae [2]; [8]): 0.634 ± 0.021 | protein stability index (Saccharomyces cerevisiae [2]; [9]): 0.6889 ± 0.0015

LCYFFFISLFLG
protein stability index (Saccharomyces cerevisiae [1]): 0.328 ± 0.0056 | protein stability index (Saccharomyces cerevisiae [2]; [3]): 0.628 ± 0.032 | protein stability index (Saccharomyces cerevisiae [2]; [4]): 0.572 ± 0.014 | protein stability index (Saccharomyces cerevisiae [2]; [5]): 0.465 ± 0.021 | protein stability index (Saccharomyces cerevisiae [2]; [6]): 0.55 ± 0.0089 | protein stability index (Saccharomyces cerevisiae [2]; [7]): 0.2248 ± 0.0011 | protein stability index (Saccharomyces cerevisiae [2]; [8]): 0.26 ± 0.023 | protein stability index (Saccharomyces cerevisiae [2]; [9]): 0.403 ± 0.0052

SPCLPRGVLFLA
protein stability index (Saccharomyces cerevisiae [1]): 0.367 ± 0.0063 | protein stability index (Saccharomyces cerevisiae [2]; [3]): 0.603 ± 0.055 | protein stability index (Saccharomyces cerevisiae [2]; [4]): 0.7253 ± 0.004 | protein stability index (Saccharomyces cerevisiae [2]; [5]): 0.667 ± 0.031 | protein stability index (Saccharomyces cerevisiae [2]; [6]): 0.716 ± 0.005 | protein stability index (Saccharomyces cerevisiae [2]; [7]): 0.2729 ± 0.0022 | protein stability index (Saccharomyces cerevisiae [2]; [8]): 0.297 ± 0.022 | protein stability index (Saccharomyces cerevisiae [2]; [9]): 0.437 ± 0.0099

GVSLRVFVVSVC
protein stability index (Saccharomyces cerevisiae [1]): 0.212 ± 0.053 | protein stability index (Saccharomyces cerevisiae [2]; [3]): 0.137 ± 0.02 | protein stability index (Saccharomyces cerevisiae [2]; [4]): 0.162 ± 0.015 | protein stability index (Saccharomyces cerevisiae [2]; [5]): 0.219 ± 0.02 | protein stability index (Saccharomyces cerevisiae [2]; [6]): 0.316 ± 0.0044 | protein stability index (Saccharomyces cerevisiae [2]; [7]): 0.108 ± 0.005 | protein stability index (Saccharomyces cerevisiae [2]; [8]): 0.122 ± 0.018 | protein stability index (Saccharomyces cerevisiae [2]; [9]): 0.142 ± 0.0047
